A short description of the data set: soluble fraction after stress (log2 fold change); higher = more stays soluble; pooled small domains, quantitative proteomics. The conditions noted are these: stress: pH 4. Summed up: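 Aggregation propensity is read out as the fold change in how much of each domain remains soluble after acid stress. The custom small-domain libraries were pooled, held at pH 4 and analysed with high-throughput quantitative proteomics. On the log2 scale used, higher values mean more of the domain stayed soluble.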
On to “HMVTVNAFGKSGPEPAAMTKEALAKGADEVRVIVDSPTAAASVRDFLIGAGLRVQLQDDEGQLIVVGEKK”, for which the “soluble fraction (log2)” value was found to be 0.344.

As to “HMVVDEQRIQTLVSAAEQNSSDPVPRVTLGNLYFDAEQFEEAVKWYEQALALDPRNVNVSTDLGVGYYY”, the “soluble fraction (log2)” value is -0.451.

Take “HMVVKLTQEQDRFIKTFNDKSLAFYYISSWGWGSFLRNGIGGVYEGDKTPFTLDEKEKMLNAIINGYEVI”: the “soluble fraction (log2)” value was -1.36.

Consider “HMVVKSPLEMAFDKFREMRKKIRKPMTERAEELIWKELSKLAGEDSDLKIEILEQSIRNGWQDVYAVK”, for which the “soluble fraction (log2)” value was -0.064.

As to “HMVVLPGEVVALKIIQTGSSKDQGVGYLEDGTMVVVDGAKNSIGKTIEIQISRSHQTVAGRMLFGIAMS”, the “soluble fraction (log2)” value is -0.0841.

For the sequence “HMVVQTELVRISITSLSGEDIRRLVQIKVVGATIEPFEGGGFLITGTAEQIAKAKDFLNSMSTEF”, the “soluble fraction (log2)” value is -1.29.

As to “HMVVRKHDRYYTPEHRKLLMDTYERTNKYPTKQDMSELAKIIGVLPIKILWWYTHRRRQDRRKGEESSSP”, the “soluble fraction (log2)” value was -2.23.

Regarding “HMVVTMEKIVVNDGGIRIDTYLADKLNISRSKVAKMLENNILVNNVKVKPSYKVTNNDIIEVEEYV”, the “soluble fraction (log2)” value was found to be 0.402.

Consider “HMVVVLPGETIKIDLIREGKDKQALGYLEDGTMIVVDNAKHLIGKNVEIEIDNVLPKEAGRVIFASLHGA”, for which the “soluble fraction (log2)” value was -0.942.

As to “HMVVVMNADAEADEIKRVKWNLEQMLFRTQVIYGVKRIVIGAIGDQREVDLSEIEQMPKVDKIVRISK”, the “soluble fraction (log2)” value was -1.39.

For “HMVVVPDVKGLKIEEAAEFFKNNNLHYNVIDSVFSKDVEPGAIVELSPLAGSKVKEGRIVFITVNALTS”, the “soluble fraction (log2)” value was -0.681.

For “HMVVVVELTENEKAVQDVLTKNEGSLEISDLKTKLELSGKQWDKALKGLAKHGITQVAKVDGVVTVSL”, the “soluble fraction (log2)” value was -1.4.

Consider “HMVWMIEKDQSVILVNKLERIQVEALGKALENGNFGDRIRVINNKSGQKLLGIVESEKKIQIISKI”, for which the “soluble fraction (log2)” value was -0.077.

Consider “HMVYLPGEEIPLKIIQEGKESGQGVGYLEDGTMVVVENGRRYLNQEVLVQVTKILQTNAGRLIFAVP”, for which the “soluble fraction (log2)” value came out at 0.11.

Consider “HMVYLPSSIKNIPTKYGEMMVANFKMDELQANSKNGWVSMVISERREPSEKGATHYAYVNTY”, for which the “soluble fraction (log2)” value was 0.106.

Regarding “HMVYNQYILTQSVRLREEPGISGRVIRLLETGTTVELVDTVVVNKDDYDWVWVKLSDGAVGWIIKSAIDI”, the “soluble fraction (log2)” value is -1.03.

Turning to “HMWDEMKDQKLVEALLLLREDERKLIYQHVFEERTFDDISRINGLPPYKVKGIYYYAIRKIRKWMG”, the “soluble fraction (log2)” value is -0.425.

In the case of “HMWGQDVLFTIDKKEFKGKLLEQSDKHTTFLPDGQKTPQKIPNRLIKEIHLGSNKIIDFGNDFLI”, the “soluble fraction (log2)” value is 0.0314.

On to “HMWPDDAIALPTRDGQDVGGAQERTMLAFASGAAGIRTVEEINPDGSITRLRTRYGWPTFETEGARTAAAE”, for which the “soluble fraction (log2)” value is -0.221.

“HMWTIDPLDWKTENADQIVEKVMSEAKENAIILLHDRYEASVEAALRIVDLLKEQGYTFVTADKLV”: the “soluble fraction (log2)” value is -0.421.

Consider “HMWTKKELWNAIAKLPKKQRTVVMMRIAQNLPYKDISEITGMSIGSAKVNYHHAVNSLKQWLS”, for which the “soluble fraction (log2)” value stood at 0.22.

For “HMWTPLVVAVLIGGTHRFGELRAAVGGITPKVLTETLRSMERDGLVVREQTPGVPPRVDYALTPLGA”, the “soluble fraction (log2)” value is -0.191.

With “HMYAGTWISESGQWKYRNDDGSFAKGWFQDLDSRWYYFDANGHMLSDTLTPDGYRLGEDGAWVND”, the “soluble fraction (log2)” value is -1.42.

As to “HMYDESVFTGEYHYYYEKLSDDDKLIYRQIYAMMQKRMDGISLNTTDTDNVSRIQQFVLLDNPQF”, the “soluble fraction (log2)” value is -2.43.

Take “HMYDKKVFRLLFILNQLDSRKKVSTGELAKEFNVSPRTVQRDIVLLNTTGFPIISLEKGYHSFMEGFSLK”: the “soluble fraction (log2)” value was -0.7.

Consider “HMYDPVNEIGRVLKKIRQERSLTLDNVAEITGVSKTMLGQIERGVSVPTISVLWKIAKGLQVSLSTLLNE”, for which the “soluble fraction (log2)” value was 0.36.

Turning to “HMYEGLPVTLIIDGRVIEANLAKANRDMAWLERELANSGVRSHHDVFFATLDSRGQLYYQVKN”, the “soluble fraction (log2)” value was -1.35.

Take “HMYELDIYPNPAIDKINVLLPSSTTLPVKVEIYDIMGKKVNSLLTTKKAFTIETDQFEKGIYFVKA”: the “soluble fraction (log2)” value worked out at 0.187.

For “HMYELREGDVVSVRILSQTGQNSYIASFAGGRFSVTSERAFAPGTVFSASVSLKDGTLVLSPL”, the “soluble fraction (log2)” value stood at 0.0111.

As for “HMYFEDEELDRFVGTPAGAYTEEDVEEFRDVLLSLDIEEVPSWVRSLQLRGIDFPETLRPELYLL”, the “soluble fraction (log2)” value was -2.72.

For “HMYGQEVKVLGLFGDRAFIKVDEKSAVIRIGQSHQNVQLKSISNQKAILLVDNKDIALGLGDSYQSA”, the “soluble fraction (log2)” value is -0.397.

Take “HMYGVAEFDEKGNVLSIEEKPVQPKSNYAVVGLYFYPNKVVGVASGIKPSARGELEITTVNQTFLRDEELK”: the “soluble fraction (log2)” value is 0.0152.

For the sequence “HMYHNKFADLAGFIAFNEKNEEIFTFGKYKGQNVKEVFQRDIGYYGWLQNADFPLYTKKVFTAIQLRSR”, the “soluble fraction (log2)” value is -1.07.

In the case of “HMYHPGFEALREVARQGSFIKAARALGISGPAVSKQIKSLEARLNLVLLHRTTRAVTLTEAGQRLTEILD”, the “soluble fraction (log2)” value is -0.437.

As for “HMYIDNVTIYDVGFNERIVHALERAGVKNLYDLSQMNFYQLQRIRNLGASSLEKVINRIHSYGILLKNES”, the “soluble fraction (log2)” value was -0.761.

For “HMYIEKTAYINDTAVNVRKSATTDSDVIKVLALNTEITIIGEENDWYKVKSGNDIGYIAKRLVSDQKKE”, the “soluble fraction (log2)” value is -0.109.

Consider “HMYIKYETVLQNITERIAALRKNGTLVLDGERTLAAEFDASRGTIRKAMRQLEENGTILREGYVTRILPE”, for which the “soluble fraction (log2)” value is -0.299.

“HMYIVVPDLSKKDINEVANILAAQSLRFQVIDSANFRSDFPKNAVISQKPLAGSEVKVNKKIYLQLNPS”: the “soluble fraction (log2)” value was -0.608.

For “HMYLEARVKSTTPILSKPNELGKSLGKLYTNDFVALVSLHKNGLDSYYRTANGGYINAADVVIDRDV”, the “soluble fraction (log2)” value is -0.133.

With “HMYLPLREVVFNALRTAIIHGEFKPGERLMEMHLAKSLGVSRTPVREAMRMLELEGLVVMIPKKGAEVAR”, the “soluble fraction (log2)” value was -0.408.

With “HMYMKMNDRIRSRRKELKMTQSVLAKLVGVNRVTITGWESGDYKPGGENLQALAAALEKTPQWLLDGKD”, the “soluble fraction (log2)” value is at least 0.43.

Take “HMYMTTADADMWKYVNTGRYNNDIQLMEEYKNRSMDSFEVITPEQQRKYNKAAMNLNSYYAWADPSYKPNP”: the “soluble fraction (log2)” value was -0.888.

Take “HMYMWQVEDLLRANELDIENIKKTIIDHYQLDDAQKSELTRWYEDLINMMRLEGVTKEGHLQINK”: the “soluble fraction (log2)” value is -1.75.

“HMYNSYALTARELELVNYVLKGNSRREMAEDSGLKENTVASYMKRLYRKIKVHSRKELKELFM”: the “soluble fraction (log2)” value is -0.422.

Regarding “HMYPDNEQTLSKLAFEFFKKRNIPISQSNINQIVTKSLGDRENLYNELLKIENFSTSGKKLTDNVIKKLIN”, the “soluble fraction (log2)” value was found to be 0.176.

Turning to “HMYPFSEETLKEKIREYLKTNRSINRRVLEREFYIRKQTALNWLNRLVDSGFLIKEGVRNSPVYFLAE”, the “soluble fraction (log2)” value turned out to be 0.26.

Consider “HMYPMQNYSTIIGVIELRQQSVGYATTQKRYGIGSSTVTLIMKRFKELGLTLEELRAMPPKAVEVAFYPPE”, for which the “soluble fraction (log2)” value turned out to be 0.246.

For “HMYPNEFPRKVMSVFESSGLEMFRTIEMLLAIPEYETPLPYGSGVSRSDIFVLAKSAGNLVSITV”, the “soluble fraction (log2)” value was -0.314.

As to “HMYQFFVDPGQIQGKRVTITGSDVNHIKNVLRMRIGEEIAVSNGKDGLEYRFGIDEILEDEVIGTLRFVKE”, the “soluble fraction (log2)” value was -1.87.

With “HMYRIGELAKLADVTPDTIRYYEKQQMMDHDVRTEGGFRLYSDNDLQRLKFIRYARQLGFTLEAIRELLSI”, the “soluble fraction (log2)” value was -0.51.

Values taken from the domain aggregation screens of Martell et al. (2025).
